{
  "source": "patent US20250206828A1",
  "about": "“ANTI-ADENOSINE RECEPTOR (A2aR) ANTIBODIES AND THE USE THEREOF” (Adept Therapeutics Inc., priority 2022, published 2025)",
  "molecules": {"B1": {"name": "Hu3F6-H3/Hu3F6-L5: humanized anti-A2aR IgG1 FES antibody; HCVR SEQ ID NO:60, LCVR SEQ ID NO:80 (antibody, V domains shown)", "VH": "EVQLVQSGAEVKKPGASVKVSCKTSGFAFTSYWMNWVRQAPGQGLEWIGRIDPSDSEAHYHHKFWGRATLTVDTSSSTVYMELSSLRSEDTAVYYCLRSLYGKGDYWGHGTTVTVSS", "VL": "DVVMTQTPLSLSVTPGQPASISCRSSQSLVHRNGNTYLEWYLQKPGQSPQLLIYKVSNRFSGVPDRFSGSGSGTDFTLKISRVEAEDVGVYYCYQGSHVPLTFGGGTKVEIK"}, "B2": {"name": "Hu3F6-H5/Hu3F6-L5: humanized anti-A2aR IgG1 FES antibody; HCVR SEQ ID NO:62, LCVR SEQ ID NO:80 (antibody, V domains shown)", "VH": "B1 VH with H61A, T74K", "VL": "B1 VL"}},
  "format_in_all_cases": "cell-based",
  "key": {"[1]": {"biological_target": "T1, human A2aR-expressing CHO cells (Homo sapiens, UniProt P29274)", "T1 construct": "expressed in transfected cells; host or cells: CHO", "T1 sequence (P29274 whole entry)": "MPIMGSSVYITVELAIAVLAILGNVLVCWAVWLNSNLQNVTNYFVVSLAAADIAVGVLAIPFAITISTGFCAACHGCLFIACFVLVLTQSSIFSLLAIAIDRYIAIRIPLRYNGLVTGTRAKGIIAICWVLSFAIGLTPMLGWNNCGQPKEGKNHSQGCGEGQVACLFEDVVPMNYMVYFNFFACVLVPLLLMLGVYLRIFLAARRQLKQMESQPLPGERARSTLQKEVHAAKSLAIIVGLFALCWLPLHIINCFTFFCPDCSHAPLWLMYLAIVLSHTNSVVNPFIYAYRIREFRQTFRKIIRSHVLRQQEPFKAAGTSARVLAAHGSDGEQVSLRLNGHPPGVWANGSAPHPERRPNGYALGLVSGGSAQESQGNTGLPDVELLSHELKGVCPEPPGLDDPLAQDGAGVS", "assay": "pH-sensitive dye (Zenon pHrodo iFL RED) based internalization assay", "details": "24 hours", "excerpt": "The Invitrogen™ Zenon™ pHrodo™ iFL RED human IgG Labeling Reagents (Cat. Z25612) Z25612) is low-pH sensitive dye and was used to determine the internalizing properties of the exemplary anti-A2aR antibodies following manufacture's instruction. The internalization of antibodies coupled with the Zenon™ pHrodo™ iFL RED human IgG Labeling reagents increase the fluorescence signal at low pH intracellular compartment in a cell, providing a method for visualizing internalization under fluorescent microscopy.\nTwenty-five microliters (25 μL) of 4× working solution of Zenon™ pHrodo™ iFL IgG Labeling Reagent were also prepared in freestyle CHO expression medium and then added to each well of a 96-well plate containing antibodies. The solutions in the 96-well plate were mixed and incubated for 5 minutes at room temperature to allow the labeling complexes to form. Afterwards, fifty microliters (50 μl) of 2×10^6/ml human A2aR-expressing CHO cells were added to each well containing labeled antibodies. Cells were then incubated with the labeling complex for 24 hours under standard cell culture conditions. Cells were analyzed under immunofluorescent microscope (Invitrogen EVOS cell imaging system M5000) to visualize the internalization of antibodies by cells. Internalization of antibody was imaged using EVOS imaging systems (Invitrogen)."}, "[2]": {"tested_on": "human PBMCs (CD4 T, CD8 T, NK cells)", "assay": "Restoration of IFN-γ and IL-2 production of NECA-suppressed T cells and NK cells (intracellular cytokine staining)", "details": "for % of cells IFNγ+, CD4 T cells / % of cells IFNγ+, CD8 T cells / % of cells IFNγ+, NK cells / % of cells IL-2+, CD4 T cells / % of cells IL-2+, CD8 T cells: NECA, test substance 1 μg/ml; for restored production of IFN-γ and IL-2 by NECA-suppressed CD8 T cell: compared with AB928, CPI-444 and AZD4635; for restored production of IFN-γ and IL-2 by NECA-suppressed NK cells: compared with the tested small molecule inhibitors", "description": "Two hundred thousand (2×10^5) human peripheral blood mononuclear cells (PBMCs) human PBMC in complete IMDM medium were aliquoted into each well in a 96-well plate and the cells in the 96-well plate were pre-incubated with antibodies or small molecule inhibitors at indicated concentration for 90 minutes, followed by addition of T cell activator anti-CD3/28 dynabeads (Gibco, Cat #11132D) at ratio of 1:4 (Beads: PBMC, v/v) and NECA (DiscoverX, Cat #92-1191, final concentration […]). Cells were cultured in an incubator at 37° C., 5% CO2 for 24 hours. Cells were then collected and stimulated with anti-CD3/28 dynabeads in the presence of GolgiPlug™ Protein Transport Inhibitor (BD Biosciences, Cat #555028) according to manufacturer's manual for 4 hours. Thereafter, cells were incubated with human TruStain FcX block (Biolegend, Cat #422302) and True-Stain monocyte blocker (Biolegend, Cat #426103) for 15 minutes according the manufacturer's manual, and cells were then stained with surface markers PE-anti-CD4 (Biolegend, Cat #300550), PerCP-cy5.5-anti-CD8 (Biolegend, Cat #301032), APC/cy7-anti-CD3 (Biolegend, Cat #300426) and PE/cy7-anti-CD56 (Biolegend, Cat #362509), PE/cy7-anti-CD56 (Biolegend, Cat #362509), BV711-anti-CD25 (Biolegend, Cat #302636) and BV605-anti-CD69 (Biolegend, Cat #31938 After wash with FACS buffer, cells were stained with BV421-anti-IFN-γ (BD Bioscience, Cat #562988) and APC anti-IL-2 (BD Bioscience, cat #551383) using intracellular cytokine staining kit (BD Biosciences, cat #555028) following manufacturer's instruction. Stained samples were analyzed on FACSAria III machine. Data were analyzed using Flowjo software."}, "[3]": {"tested_on": "human PBMCs (CD4 T, CD8 T, NK cells)", "assay": "Restoration of IFN-γ and IL-2 production of NECA-suppressed T cells and NK cells (intracellular cytokine staining)", "details": "anti-CD3/28 Dynabeads activated, 0.1 μM NECA; for restoring IFN-γ production in human CD4 T suppressed by NECA (FIG. 5A): compared with AB928, AZD4635 and CPI-444; for restoring IL-2 production in human CD4 T suppressed by NECA (FIG. 5B): compared with AZD4635 and CPI-444"}},
  "note": "Where a chain is given by its changes, count along the chain named.",
  "data": [
    {"molecule": "B1", "values": [
      {"measurement": "induction of internalization (pHrodo fluorescence microscopy, FIG. 3)", "setting": "[1]", "result": "internalization can be induced"},
      {"measurement": "% of cells IFNγ+, CD4 T cells", "setting": "[2]", "result": 4.35, "unit": "%"},
      {"measurement": "% of cells IFNγ+, CD8 T cells", "setting": "[2]", "result": 14.1, "unit": "%"},
      {"measurement": "% of cells IFNγ+, NK cells", "setting": "[2]", "result": 17.8, "unit": "%"},
      {"measurement": "% of cells IL-2+, CD4 T cells", "setting": "[2]", "result": 13.4, "unit": "%"},
      {"measurement": "% of cells IL-2+, CD8 T cells", "setting": "[2]", "result": 3.29, "unit": "%"},
      {"measurement": "restored production of IFN-γ and IL-2 by NECA-suppressed CD8 T cell", "setting": "[2]", "result": "restored production of IFN-γ and IL-2 by NECA-suppressed CD8 T cell, with higher potency"},
      {"measurement": "restored production of IFN-γ and IL-2 by NECA-suppressed NK cells", "setting": "[2]", "result": "restored production of IFN-γ and IL-2 by NECA-suppressed NK cells, with a potency higher"},
      {"measurement": "restoring IFN-γ production in human CD4 T suppressed by NECA (FIG. 5A)", "setting": "[3]; listed as Hu3F6-VH3/Hu3F6-VL5", "result": "higher potency in restoring IFN-γ production"},
      {"measurement": "restoring IFN-γ production in human CD4 T suppressed by NECA (FIG. 5A)", "setting": "[3]; listed as Hu3F6-VH3/VL5", "result": "can restore the intracellular IFN gamma and IL2 production"},
      {"measurement": "restoring IL-2 production in human CD4 T suppressed by NECA (FIG. 5B)", "setting": "[3]", "result": "can restore the intracellular IFN gamma and IL2 production"}
    ]},
    {"molecule": "B2", "values": [
      {"measurement": "induction of internalization (pHrodo fluorescence microscopy, FIG. 3)", "setting": "[1]", "result": "internalization can be induced"},
      {"measurement": "% of cells IFNγ+, CD4 T cells", "setting": "[2]", "result": 4.29, "unit": "%"},
      {"measurement": "% of cells IFNγ+, CD8 T cells", "setting": "[2]", "result": 14.8, "unit": "%"},
      {"measurement": "% of cells IFNγ+, NK cells", "setting": "[2]", "result": 16.6, "unit": "%"},
      {"measurement": "% of cells IL-2+, CD4 T cells", "setting": "[2]", "result": 13.2, "unit": "%"},
      {"measurement": "% of cells IL-2+, CD8 T cells", "setting": "[2]", "result": 2.98, "unit": "%"},
      {"measurement": "restored production of IFN-γ and IL-2 by NECA-suppressed CD8 T cell", "setting": "[2]", "result": "restored production of IFN-γ and IL-2 by NECA-suppressed CD8 T cell, with higher potency"},
      {"measurement": "restored production of IFN-γ and IL-2 by NECA-suppressed NK cells", "setting": "[2]", "result": "restored production of IFN-γ and IL-2 by NECA-suppressed NK cells, with a potency higher"},
      {"measurement": "restoring IFN-γ production in human CD4 T suppressed by NECA (FIG. 5A)", "setting": "[3]; listed as Hu3F6-VH5/Hu3F6-VL5", "result": "higher potency in restoring IFN-γ production"},
      {"measurement": "restoring IFN-γ production in human CD4 T suppressed by NECA (FIG. 5A)", "setting": "[3]; listed as Hu3F6-VH5/VL5", "result": "can restore the intracellular IFN gamma and IL2 production"},
      {"measurement": "restoring IL-2 production in human CD4 T suppressed by NECA (FIG. 5B)", "setting": "[3]", "result": "can restore the intracellular IFN gamma and IL2 production"}
    ]}
  ]
}
